Legend:
[1] = molecular target: Photosystem I protomer from Thermosynechococcus elongatus BP-1 (His10-tag on PsaF) (Thermosynechococcus elongatus BP-1) (UniProt P0A405); assay: cryo-EM structure
[2] = molecular target: Photosystem I trimer from Thermosynechococcus elongatus BP-1 (His10-tag on PsaF) (Thermosynechococcus elongatus BP-1) (UniProt P0A405); assay: ITC

Photosystem I protomer from Thermosynechococcus elongatus BP-1 (His10-tag on PsaF) (from UniProt P0A405;P0A407;P0A415;P0A420;P0A423;P0A401;P0A427;P0A429;P0A425;Q8DGB4;P0A403) (complex)
stoichiometry N [1]: 3

gallium-substituted ferredoxin from Thermosynechococcus elongatus BP-1 (from UniProt P0A3C9) (natural protein)
Kd [2]: 800 µM

From publication doi:10.1101/2022.03.01.482405
